Source: patent publication US20050214212A1

Columns and labels:
[1] = molecular target: glutathione-S-transferase fusion protein containing domains v3-v10 of human CD44 (human) (UniProt P16070); experiment: ratio of affinities from SPR on GST/CD44v3-v10
[2] = molecular target: glutathione-S-transferase fusion protein containing domains v3-v10 of human CD44 (human) (UniProt P16070); experiment: SPR (BIAcore 2000), GST/CD44v3-v10 immobilised on CM5
[3] = molecular target: CD44v6 (human CD44 variant isoform containing exon v6) on human tumour cells (human) (UniProt P16070); experiment: immunoreactivity assay, 186Re-MAG3-labelled MAb on fixed UM-SCC-11B cells
[4] = molecular target: glutathione-S-transferase fusion protein containing domains v3-v10 of human CD44 (human) (UniProt P16070); experiment: SPR (BIAcore 2000), GST/CD44v3-v10 immobilised on CM5, MAb 8-67 nM injected
[5] = molecular target: CD44v6 (human CD44 variant isoform containing exon v6) on human tumour cells (human) (UniProt P16070); experiment: immunoreactivity assay, 131I-labelled MAb on glutaraldehyde-fixed UM-SCC-11B cells, experiment 2
[6] = molecular target: CD44v6 (human CD44 variant isoform containing exon v6) on human tumour cells (human) (UniProt P16070); experiment: immunoreactivity assay, 131I-labelled MAb on glutaraldehyde-fixed UM-SCC-11B cells, experiment 3
[7] = molecular target: CD44v6 (human CD44 variant isoform containing exon v6) on human tumour cells (human) (UniProt P16070); experiment: immunoreactivity assay of clinical 99mTc-/186Re-MAG3-labelled BIWA 4 batches on fixed UM-SCC-11B cells
[8] = molecular target: CD44v6 (human CD44 variant isoform containing exon v6) on human tumour cells (human) (UniProt P16070); experiment: immunoreactivity assay on fixed UM-SCC-11B cells, linear extrapolation to infinite antigen excess, experiment 2
[9] = molecular target: CD44v6 (human CD44 variant isoform containing exon v6) on human tumour cells (human) (UniProt P16070); experiment: immunoreactivity assay on fixed UM-SCC-11B cells, linear extrapolation to infinite antigen excess, experiment 3
[10] = molecular target: CD44v6 (human CD44 variant isoform containing exon v6) on human tumour cells (human) (UniProt P16070); experiment: immunoreactivity assay, 125I-labelled MAb on glutaraldehyde-fixed UM-SCC-11B cells, experiment 3

Sequence of glutathione-S-transferase fusion protein containing domains v3-v10 of human CD44 (human) (P16070 267-604): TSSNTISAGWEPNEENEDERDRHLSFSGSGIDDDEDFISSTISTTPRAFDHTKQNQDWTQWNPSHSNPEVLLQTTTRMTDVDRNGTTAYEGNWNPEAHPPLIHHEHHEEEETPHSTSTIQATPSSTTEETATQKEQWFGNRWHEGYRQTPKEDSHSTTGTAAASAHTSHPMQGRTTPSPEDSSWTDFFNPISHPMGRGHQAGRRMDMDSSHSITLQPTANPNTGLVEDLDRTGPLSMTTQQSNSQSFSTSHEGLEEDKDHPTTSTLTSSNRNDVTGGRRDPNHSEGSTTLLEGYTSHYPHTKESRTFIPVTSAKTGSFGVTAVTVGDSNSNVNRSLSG

B1: hMAb BIWA 4 (bivatuzumab), humanised CDR-grafted antibody without framework modifications (antibody, human IgG1, kappa, V domains shown)
VH: EVQLVESGGGLVKPGGSLRLSCAASGFTFSSYDMSWVRQAPGKGLEWVSTISSGGSYTYYLDSIKGRFTISRDNAKNSLYLQMNSLRAEDTAVYYCARQGLDYWGRGTLVTVSS
VL: EIVLTQSPATLSLSPGERATLSCSASSSINYIYWYQQKPGQAPRLLIYLTSNLASGVPARFSGSGSGTDFTLTISSLEPEDFAVYYCLQWSSNPLTFGGGTKVEIKR
B1 gave a fold lower affinity than cMAb BIWA 2 [1] of 14 fold, a fold lower affinity than hMAb BIWA 8 [1] of 4 fold and a Kd relative to murine BIWA 1 [2] of 10.5. The immunoreactive fraction [3] was over 75%, the Kd [4] was 3.4 nM and the koff [4] was 0.00022 s⁻¹. It also gave a kon [4] of 65000 M⁻¹ s⁻¹, a Binding to 5 × 10^6 cells (%) [5] of 77.4% and a Binding to 5 × 10^6 cells (%) [6] of 77.3%. It also gave an immunoreactive fraction [7] of over 80%, a Binding Extrapolated (%) (immunoreactive fraction) [8] of 82.3% and a Binding Extrapolated (%) (immunoreactive fraction) [9] of 74.5%.

B2: hMAb BIWA 8, humanised CDR-grafted antibody with framework modifications (antibody, human IgG1, kappa, V domains shown)
VH: EVQLVESGGGLVKPGGSLRLSCAASGFTFSSYDMSWVRQAPGKGLEWVSTISSGGSYTYYLDSIKGRFTISRDNAKNSLYLQMNSLRAEDTAVYYCARQGLDYWGRGTLVTVSS
VL: EIVLTQSPATLSLSPGERATLSCSASSSINYIYWLQQKPGQAPRILIYLTSNLASGVPARFSGSGSGTDFTLTISSLEPEDFAVYYCLQWSSNPLTFGGGTKVEIKR
Work on B2 yielded a Kd relative to murine BIWA 1 [2] of 2.6, an immunoreactive fraction [3] of over 75% and a Kd [4] of 0.84 nM. The koff [4] was 6.3e-05 s⁻¹, the kon [4] was 75000 M⁻¹ s⁻¹ and the Binding to 5 × 10^6 cells (%) [10] was 91.8%. The Binding Extrapolated (%) (immunoreactive fraction) [9] was 92.1%.
